The values that follow come from patent US20220169677A1 (INSERM INSTITUT NATIONAL DE LA SANTE ET DE LA RECHERCHE …, published 2022).

T1: recombinant human NRP-1 (human, UniProt O14786-2 22-644, limits assumed)
T1 construct: Coated on a 96-well plate at 200 ng/well; GenBank AAC51759.1 is printed only as the preferred definition of NRP-1; also called Neuropilin-1
T1 sequence (looked up): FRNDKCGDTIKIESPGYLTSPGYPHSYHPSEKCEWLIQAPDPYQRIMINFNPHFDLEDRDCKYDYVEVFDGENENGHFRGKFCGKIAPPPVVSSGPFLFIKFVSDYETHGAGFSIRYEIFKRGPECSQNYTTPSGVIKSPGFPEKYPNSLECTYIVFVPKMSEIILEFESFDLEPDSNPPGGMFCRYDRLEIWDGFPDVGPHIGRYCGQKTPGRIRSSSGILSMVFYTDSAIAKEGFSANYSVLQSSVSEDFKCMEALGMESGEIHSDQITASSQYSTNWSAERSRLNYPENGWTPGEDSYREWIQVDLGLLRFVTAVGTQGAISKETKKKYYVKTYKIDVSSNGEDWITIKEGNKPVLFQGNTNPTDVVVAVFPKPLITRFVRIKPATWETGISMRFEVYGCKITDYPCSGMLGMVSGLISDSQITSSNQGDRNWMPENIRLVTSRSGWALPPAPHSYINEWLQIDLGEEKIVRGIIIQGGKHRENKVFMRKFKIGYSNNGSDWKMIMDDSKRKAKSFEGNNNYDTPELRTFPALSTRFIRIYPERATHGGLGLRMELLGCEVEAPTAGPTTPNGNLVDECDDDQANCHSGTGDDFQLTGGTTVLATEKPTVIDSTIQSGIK

B1: H2N-Cys-Thr-Lys-Pro-Arg-OH (peptide)
peptide: H-CTKPR-OH
notes: TKPR (tuftsin) with an added N-terminal Cys; also called CTKPR
B2: H2N-Cys-Leu-Pro-Pro-Arg-OH (peptide)
peptide: H-CLPPR-OH
notes: LPPR (active part of A7R) with an added N-terminal Cys; also called CLPPR
B3: H2N-Cys-Lys-Pro-Arg-Arg-OH (peptide)
peptide: H-CKPRR-OH
notes: KPRR (peptide derived from the VEGF-A165 C-terminus) with an added N-terminal Cys; also called CKPRR

One test has as its target T1, recombinant human NRP-1. Put plainly: competition: inhibition of (bt)-VEGF-A165 binding to coated NRP-1.
As to KPRR (Parent tetrapeptide without Cys; 5) [KPRR (peptide derived from the VEGF-A165)], the IC50 was determined as 4.5 µM. On the same count and under the same terms, in the case of LPPR (Parent tetrapeptide without Cys; 3) [LPPR (active part of A7R)] it was 80 µM.

The next test has as its target T1, recombinant human NRP-1. Put plainly: chemiluminescence competition: inhibition of (bt)-VEGF-A165 binding to coated NRP-1. The method, then: The flat bottom surface of a 96-well plate was coated with 100 μL (200 ng/well) recombinant human NRP-1 and incubated overnight at 4° C. Non-specific binding was blocked by the incubation with 0.5% BSA in PBS. 50 μL of peptide dissolved in PBS in range concentrations and 50 μL (400 ng/mL) of human (bt)-VEGF-A₁₆₅ in PBS containing 4 μg/mL of heparin were added respectively. After 2 h incubation at room temperature the plate was washed and treated with streptavidin-horseradish peroxidase conjugate in PBS (1:8000). Chemiluminescence was quantified immediately after addition of 100 μL Chemiluminescent substrate. In a positive control only (bt)-VEGF-A₁₆₅ was present in wells, while, in negative control, wells were not coated by NRP-1. Percentages of inhibition were calculated by the following formula: […]
As for “H-Cys-Lys(hArg)-Dab-Oic-Arg-OH (peptide)”, the half-maximal inhibitory concentration (IC50) amounted to 50 nM and the fold decrease in IC50 against the sequence without cysteine was determined as 100 fold. Taken in the same sequence, the figures for “H-Cys-Lys(hArg)-Dab-ΔPro-Arg-OH (peptide)” were 70 nM and 100 fold. Taken in the same sequence, the figures for “H-Lys(Cys-hArg)-Dab-Oic-Arg-OH (peptide)” were 40 nM and 100 fold. Taken in the same sequence, the figures for “H-Lys(Cys-hArg)-Dab-ΔPro-Arg-OH (peptide)” were 60 nM and 100 fold. Consider B1, for which the IC50 was 19000 nM. Still for that read-out and setting: in the case of B2 it was 17000 nM. As for B3, the IC50 was determined as 100 nM.

As a reminder, the IC50 is the midpoint of a concentration-inhibition curve.
